Ends that are not written are not given here.
What was measured:
Assay in all cases: BLI
talin head t1-400 = talin head t1-400 (human, UniProt Q9Y490 1-400)
talin head t1-405 = talin head t1-405 (human, UniProt Q9Y490 1-405)
talin head t1-435 = talin head t1-435 (human, UniProt Q9Y490 1-435)

Measured: binding result

Chain of talin head t1-435 (Q9Y490 1-435): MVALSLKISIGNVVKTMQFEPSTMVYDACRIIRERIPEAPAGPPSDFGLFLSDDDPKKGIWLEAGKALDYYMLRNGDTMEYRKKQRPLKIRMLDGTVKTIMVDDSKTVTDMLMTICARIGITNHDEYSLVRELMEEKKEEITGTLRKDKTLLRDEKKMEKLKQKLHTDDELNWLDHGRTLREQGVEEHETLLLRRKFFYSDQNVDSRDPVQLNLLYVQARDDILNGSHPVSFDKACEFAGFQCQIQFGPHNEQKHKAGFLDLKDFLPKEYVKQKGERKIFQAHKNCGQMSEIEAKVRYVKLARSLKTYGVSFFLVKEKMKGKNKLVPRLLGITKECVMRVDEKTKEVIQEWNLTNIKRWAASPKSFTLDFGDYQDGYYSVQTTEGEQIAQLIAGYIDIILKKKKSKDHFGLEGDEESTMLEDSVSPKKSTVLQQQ
Chain of talin head t1-405 (Q9Y490 1-405): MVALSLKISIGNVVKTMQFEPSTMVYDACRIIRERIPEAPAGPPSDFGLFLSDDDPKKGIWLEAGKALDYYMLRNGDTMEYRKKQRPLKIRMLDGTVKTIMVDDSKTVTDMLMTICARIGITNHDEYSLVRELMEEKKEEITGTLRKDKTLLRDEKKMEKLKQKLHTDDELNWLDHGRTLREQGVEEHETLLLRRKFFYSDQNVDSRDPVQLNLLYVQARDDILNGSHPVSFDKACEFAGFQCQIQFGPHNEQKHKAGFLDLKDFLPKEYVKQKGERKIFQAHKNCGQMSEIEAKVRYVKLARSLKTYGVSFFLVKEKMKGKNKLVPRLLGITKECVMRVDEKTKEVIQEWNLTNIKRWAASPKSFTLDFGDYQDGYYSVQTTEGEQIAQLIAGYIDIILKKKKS
Chain of talin head t1-400 (Q9Y490 1-400): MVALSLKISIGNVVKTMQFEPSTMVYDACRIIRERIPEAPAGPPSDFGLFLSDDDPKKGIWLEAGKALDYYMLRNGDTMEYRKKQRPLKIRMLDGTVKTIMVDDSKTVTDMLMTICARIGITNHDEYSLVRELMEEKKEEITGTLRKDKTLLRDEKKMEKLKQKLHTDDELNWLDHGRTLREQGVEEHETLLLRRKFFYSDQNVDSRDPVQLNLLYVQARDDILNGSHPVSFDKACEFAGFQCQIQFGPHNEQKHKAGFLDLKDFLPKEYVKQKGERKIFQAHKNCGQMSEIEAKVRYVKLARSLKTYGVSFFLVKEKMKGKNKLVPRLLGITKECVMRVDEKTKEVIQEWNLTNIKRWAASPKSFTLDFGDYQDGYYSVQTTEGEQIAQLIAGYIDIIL

B1: GST-integrin β3 cytoplasmic tail fusion, wild type (WT-β3) (domain or fragment)
chain: {GST}-GSKLLITIHDRKEFAKFEEERARAKWDTANNPLYKEATSTFTNITYRGT
binds: all assays above

From paper PMC7768682 (Proceedings of the National Academy of Sciences of the …, 2020)
